Experimental data reported in publication PMC5027616, “IL-13Rα2 uses TMEM219 in chitinase 3-like-1-induced signalling and effector responses” (Nature Communications, 2016).

Biological target: T1, IL-13Rα2-Chi3l1 complexes (labelled) (UniProt Q14627 27-343; P36222 22-383, BODPY-TRM-X-succinimidyl ester label)
T1 construct: IL-13 receptor alpha 2, ectodomain; as m13; chitinase 3-like-1; as m12; The legend calls the complexes labelled; also called IL-13Rα2 complexed with Chi3l1; source: both proteins from the baculovirus-insect cell expression system, purified; complex formed before the titration
T1 sequence (Q14627 27-343, chain 1 of 2): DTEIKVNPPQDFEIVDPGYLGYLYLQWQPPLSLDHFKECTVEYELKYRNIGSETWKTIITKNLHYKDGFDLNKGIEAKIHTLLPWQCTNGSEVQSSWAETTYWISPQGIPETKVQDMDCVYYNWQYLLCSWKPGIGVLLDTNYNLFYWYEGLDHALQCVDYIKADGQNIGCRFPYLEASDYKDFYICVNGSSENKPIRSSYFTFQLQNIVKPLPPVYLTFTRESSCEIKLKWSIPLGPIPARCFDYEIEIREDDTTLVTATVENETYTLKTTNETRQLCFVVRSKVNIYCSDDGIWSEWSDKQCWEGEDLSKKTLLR
T1 sequence (P36222 22-383, chain 2 of 2): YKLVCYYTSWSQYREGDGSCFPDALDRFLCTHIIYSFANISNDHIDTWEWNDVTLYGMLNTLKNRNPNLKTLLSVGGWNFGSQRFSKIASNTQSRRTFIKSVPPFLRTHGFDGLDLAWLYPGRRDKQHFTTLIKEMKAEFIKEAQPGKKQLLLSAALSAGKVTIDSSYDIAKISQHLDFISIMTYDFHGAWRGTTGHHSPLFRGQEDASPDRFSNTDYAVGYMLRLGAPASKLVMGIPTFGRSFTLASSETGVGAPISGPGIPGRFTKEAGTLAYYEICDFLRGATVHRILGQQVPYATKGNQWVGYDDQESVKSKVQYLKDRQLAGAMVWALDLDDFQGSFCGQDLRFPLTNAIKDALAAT
Assay: fluorescence polarisation; fluorescence anisotropy; serial dilutions of TMEM219 in 13 nm nanodisc (10 nM-10 μM) added to 10 nM labelled protein or complex; PBS for labelling; empty nanodisc as control
Conditions: both partners purified

B1: His-tagged human TMEM219 (natural protein, UniProt Q86XT9 39-240, looked up)
chain: SFLLTHRTGLRSPDIPQDWVSFLRSFGQLTLCPRNGTVTGKWRGSHVVGLLTTLNFGDGPDRNKTRTFQATVLGSQMGLKGSSAGQLVLITARVTTERTAGTCLYFSAVPGILPSSQPPISCSEEGAGNATLSPRMGEECVSVWSHEGLVLTKLLTSEELALCGSRLLVLGSFLLLFCGLLCCVTAMCFHPRRESHWSRTRL
notes: also called recombinant human (rh) TMEM219; rTMEM219; source: HEK293T cells (pcDNA3.1), purified (Nickel beads)
**Q.** Which Kd does the source give for B1 here?
**A.** The Kd was roughly 288 nM.
